Where a chain is given by its changes, count along the chain named. Names and notes keep the numbering of the source.
T1: human TIGIT on HEK-Blue reporter cells (human, UniProt Q495A1 22-244)
T1 sequence (looked up): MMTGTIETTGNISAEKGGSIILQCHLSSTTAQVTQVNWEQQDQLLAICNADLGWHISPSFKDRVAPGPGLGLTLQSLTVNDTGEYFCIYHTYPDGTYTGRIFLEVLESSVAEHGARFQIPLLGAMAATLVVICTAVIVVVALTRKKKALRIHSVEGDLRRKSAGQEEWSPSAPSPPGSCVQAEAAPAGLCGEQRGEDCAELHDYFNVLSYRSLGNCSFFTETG

T2: IFN-γ receptor (IFNGR1 and IFNGR2) (UniProt P15260 18-489; P38484 22-337, limits assumed)
T2 sequence (looked up) 1: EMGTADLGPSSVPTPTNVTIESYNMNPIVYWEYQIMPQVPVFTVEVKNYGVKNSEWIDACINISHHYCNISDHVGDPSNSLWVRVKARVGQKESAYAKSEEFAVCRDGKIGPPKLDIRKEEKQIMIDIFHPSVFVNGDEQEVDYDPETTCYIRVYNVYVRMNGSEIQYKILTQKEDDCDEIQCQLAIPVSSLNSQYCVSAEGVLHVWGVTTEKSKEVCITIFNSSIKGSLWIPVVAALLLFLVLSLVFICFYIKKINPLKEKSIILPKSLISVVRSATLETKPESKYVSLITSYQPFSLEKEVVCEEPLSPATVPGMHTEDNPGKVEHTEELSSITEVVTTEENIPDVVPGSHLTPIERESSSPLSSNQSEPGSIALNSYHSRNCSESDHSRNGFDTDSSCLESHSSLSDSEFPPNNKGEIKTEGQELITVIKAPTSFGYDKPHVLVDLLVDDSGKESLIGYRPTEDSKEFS
T2 sequence (looked up) 2: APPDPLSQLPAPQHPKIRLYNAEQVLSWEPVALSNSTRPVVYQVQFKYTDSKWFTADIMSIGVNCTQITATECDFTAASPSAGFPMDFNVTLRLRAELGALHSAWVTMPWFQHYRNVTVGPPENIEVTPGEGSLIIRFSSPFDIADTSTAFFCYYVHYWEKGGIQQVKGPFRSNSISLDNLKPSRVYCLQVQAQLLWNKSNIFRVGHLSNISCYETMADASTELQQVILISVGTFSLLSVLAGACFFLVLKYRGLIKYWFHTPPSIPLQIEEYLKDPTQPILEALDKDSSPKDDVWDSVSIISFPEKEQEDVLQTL

T3: mouse PD-1 (mouse, UniProt Q02242 25-167, limits assumed)
T3 construct: also called mPD-1
T3 sequence (looked up): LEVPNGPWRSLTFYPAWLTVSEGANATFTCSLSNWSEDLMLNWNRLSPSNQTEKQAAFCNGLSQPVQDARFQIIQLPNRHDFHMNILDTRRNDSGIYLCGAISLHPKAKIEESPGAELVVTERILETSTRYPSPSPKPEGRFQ

B1: IL-12(E59A/F60A)/IFN-γ(A23V/A23V)/CD155-Fc (Fc fusion)
chain 1: WPPPGTGDVVVQAPTQVPGFLGDSVTLPCYLQVPNMEVTHVSQLTWARHGESGSMAVFHQTQGPSYSESKRLEFVAARLGAELRNASLRMFGLRVEDEGNYTCLFVTFPQGSRSVDIWLRVLAKPQNTAEVQKVQLTGEPVPMARCVSTGGRPPAQITWHSDLGGMPNTSQVPGFLSGTVTVTSLWILVPSSQVDGKNVTCKVEHESFEKPQLLTVNLTVYYPPEVSISGYDNNWYLGQNEATLTCDARSNPEPTGYNWSTTMGPLPPFAVAQGAQLLIRPVDKPINTTLICNVTNALGARQAELTVQVKEGPPSEHSGISRNGGGGSGGGIWELKKDVYVVELDWYPDAPGEMVVLTCDTPEEDGITWTLDQSSEVLGSGKTLTIQVKAAGDAGQYTCHKGGEVLSHSLLLLHKKEDGIWSTDILKDQKEPKNKTFLRCEAKNYSGRFTCWWLTTISTDLTFSVKSSRGSSDPQGVTCGAATLSAERVRGDNKEYEYSVECQEDSACPAAEESLPIEVMVDAVHKLKYENYTSSFFIRDIIKPDPPKNLQLKPLKNSRQVEVSWEYPDTWSTPHSYFSLTFCVQVQGKSKREKKDRVFTDKTSATVICRKNASISVRAQDRYYSSSWSEWASVPCSGGGGSGGGSGGGGSRNLPVATPDPGMFPCLHHSQNLLRAVSNMLQKARQTLEFYPCTSEEIDHEDITKDKTSTVEACLPLELTKNESCLNSRETSFITNGSCLASRKTSFMMALCLSSIYEDLKMYQVEFKTMNAKLLMDPKRQIFLDQNMLAVIDELMQALNFNSETVPQKSSLEEPDFYKTKIKLCILLHAFRIRAVTIDRVMSYLNASGGGGSGGGDKTHTCPPCPAPEDEGGPSVFLFPPKPKDTLMISRTPEVTCVVVDVSHEDPEVKFNWYVDGVEVHNAKTKPREEQYNSTYRVVSVLTVLHQDWLNGKEYKCKVSNKALPAPIEKTISKAKGQPREPQVYVYPPSREEMTKNQVSLTCLVKGFYPSDIAVEWESNGQPENNYKTTPPVLDEDGSFALVSKLTVDKSRWQQGNVFSCSVMHEALHNHYTQKSLSLSPGK
chain 2: WPPPGTGDVVVQAPTQVPGFLGDSVTLPCYLQVPNMEVTHVSQLTWARHGESGSMAVFHQTQGPSYSESKRLEFVAARLGAELRNASLRMFGLRVEDEGNYTCLFVTFPQGSRSVDIWLRVLAKPQNTAEVQKVQLTGEPVPMARCVSTGGRPPAQITWHSDLGGMPNTSQVPGFLSGTVTVTSLWILVPSSQVDGKNVTCKVEHESFEKPQLLTVNLTVYYPPEVSISGYDNNWYLGQNEATLTCDARSNPEPTGYNWSTTMGPLPPFAVAQGAQLLIRPVDKPINTTLICNVTNALGARQAELTVQVKEGPPSEHSGISRNGGGSGQDPYVKEAENLKKYFNAGHSDVVDNGTLFLGILKNWKEESDRKIMQSQIVSFYFKLFKNFKDDQSIQKSVETIKEDMNVKFFNSNKKKRDDFEKLTNYSVTDLNVQRKAIHELIQVMAELSPAAKTGKRKRSQMLFRGGGGSGGGGSGGGGSGGGGSQDPYVKEAENLKKYFNAGHSDVVDNGTLFLGILKNWKEESDRKIMQSQIVSFYFKLFKNFKDDQSIQKSVETIKEDMNVKFFNSNKKKRDDFEKLTNYSVTDLNVQRKAIHELIQVMAELSPAAKTGKRKRSQMLFRGGGGGSGGGDKTHTCPPCPAPEKKGGPSVFLFPPKPKDTLMISRTPEVTCVVVDVSHEDPEVKFNWYVDGVEVHNAKTKPREEQYNSTYRVVSVLTVLHQDWLNGKEYKCKVSNKALPAPIEKTISKAKGQPREPQVYVLPPSREEMTKNQVSLLCLVKGFYPSDIAVEWESNGQPENRYMTWPPVLDSDGSFFLYSKLTVDKSRWQQGNVFSCSVMHEALHNHYTQKSLSLSPGK
B2: IFN-γ(A23V/A23V)/CD155-Fc (Fc fusion)
chain 1: WPPPGTGDVVVQAPTQVPGFLGDSVTLPCYLQVPNMEVTHVSQLTWARHGESGSMAVFHQTQGPSYSESKRLEFVAARLGAELRNASLRMFGLRVEDEGNYTCLFVTFPQGSRSVDIWLRVLAKPQNTAEVQKVQLTGEPVPMARCVSTGGRPPAQITWHSDLGGMPNTSQVPGFLSGTVTVTSLWILVPSSQVDGKNVTCKVEHESFEKPQLLTVNLTVYYPPEVSISGYDNNWYLGQNEATLTCDARSNPEPTGYNWSTTMGPLPPFAVAQGAQLLIRPVDKPINTTLICNVTNALGARQAELTVQVKEGPPSEHSGISRNGGGGSGGGDKTHTCPPCPAPEDEGGPSVFLFPPKPKDTLMISRTPEVTCVVVDVSHEDPEVKFNWYVDGVEVHNAKTKPREEQYNSTYRVVSVLTVLHQDWLNGKEYKCKVSNKALPAPIEKTISKAKGQPREPQVYVYPPSREEMTKNQVSLTCLVKGFYPSDIAVEWESNGQPENNYKTTPPVLDEDGSFALVSKLTVDKSRWQQGNVFSCSVMHEALHNHYTQKSLSLSPGK
chain 2: B1 chain 2
B3: PD-L2(mut2)-Fc, S58V (Fc fusion)
chain 1: LFTVTVPKELYIIEHGSNVTLECNFDTGSHVNLGAITAVLQKVENDTSPHRERATLLEEQLPLGKASFHIPQVQVRDEGQYQCIIIYGVAWDYKYLTLKVKASYRKINTHILKVPETDEVELTCQATGYPLAEVSWPNVSVPANTSHSRTPEGLYQVTSVLRLKPPPGRNFSCVFWNTHVRELTLASIDLQSQMEPRTHPTGGGGSGGGDKTHTCPPCPAPEDEGGPSVFLFPPKPKDTLMISRTPEVTCVVVDVSHEDPEVKFNWYVDGVEVHNAKTKPREEQYNSTYRVVSVLTVLHQDWLNGKEYKCKVSNKALPAPIEKTISKAKGQPREPQVYVYPPSREEMTKNQVSLTCLVKGFYPSDIAVEWESNGQPENNYKTTPPVLDEDGSFALVSKLTVDKSRWQQGNVFSCSVMHEALHNHYTQKSLSLSPGK
chain 2: B3 chain 1 with D223K, E224K, Y340L, T355L, N379R, K381M, T383W, E389S, A394F, V396Y
notes: also called PD-L2(S58V)
B4: PD-L2(mut4)-Fc, T56V/S58V/Q60L (Fc fusion)
chain 1: B3 chain 1 with T37V, Q41L
chain 2: LFTVTVPKELYIIEHGSNVTLECNFDTGSHVNLGAIVAVLLKVENDTSPHRERATLLEEQLPLGKASFHIPQVQVRDEGQYQCIIIYGVAWDYKYLTLKVKASYRKINTHILKVPETDEVELTCQATGYPLAEVSWPNVSVPANTSHSRTPEGLYQVTSVLRLKPPPGRNFSCVFWNTHVRELTLASIDLQSQMEPRTHPTGGGGSGGGDKTHTCPPCPAPEKKGGPSVFLFPPKPKDTLMISRTPEVTCVVVDVSHEDPEVKFNWYVDGVEVHNAKTKPREEQYNSTYRVVSVLTVLHQDWLNGKEYKCKVSNKALPAPIEKTISKAKGQPREPQVYVLPPSREEMTKNQVSLLCLVKGFYPSDIAVEWESNGQPENRYMTWPPVLDSDGSFFLYSKLTVDKSRWQQGNVFSCSVMHEALHNHYTQKSLSLSPGK
B5: PD-L2(mut1)-Fc, T56V (Fc fusion)
chain 1: LFTVTVPKELYIIEHGSNVTLECNFDTGSHVNLGAIVASLQKVENDTSPHRERATLLEEQLPLGKASFHIPQVQVRDEGQYQCIIIYGVAWDYKYLTLKVKASYRKINTHILKVPETDEVELTCQATGYPLAEVSWPNVSVPANTSHSRTPEGLYQVTSVLRLKPPPGRNFSCVFWNTHVRELTLASIDLQSQMEPRTHPTDKTHTCPPCPAPEDEGGPSVFLFPPKPKDTLMISRTPEVTCVVVDVSHEDPEVKFNWYVDGVEVHNAKTKPREEQYNSTYRVVSVLTVLHQDWLNGKEYKCKVSNKALPAPIEKTISKAKGQPREPQVYVYPPSREEMTKNQVSLTCLVKGFYPSDIAVEWESNGQPENNYKTTPPVLDEDGSFALVSKLTVDKSRWQQGNVFSCSVMHEALHNHYTQKSLSLSPGK
chain 2: B5 chain 1 with D215K, E216K, Y332L, T347L, N371R, K373M, T375W, E381S, A386F, V388Y
B6: PD-L2(mut3)-Fc, Q60L (Fc fusion)
chain 1: B5 chain 1 with V37T, Q41L
chain 2: LFTVTVPKELYIIEHGSNVTLECNFDTGSHVNLGAITASLLKVENDTSPHRERATLLEEQLPLGKASFHIPQVQVRDEGQYQCIIIYGVAWDYKYLTLKVKASYRKINTHILKVPETDEVELTCQATGYPLAEVSWPNVSVPANTSHSRTPEGLYQVTSVLRLKPPPGRNFSCVFWNTHVRELTLASIDLQSQMEPRTHPTDKTHTCPPCPAPEKKGGPSVFLFPPKPKDTLMISRTPEVTCVVVDVSHEDPEVKFNWYVDGVEVHNAKTKPREEQYNSTYRVVSVLTVLHQDWLNGKEYKCKVSNKALPAPIEKTISKAKGQPREPQVYVLPPSREEMTKNQVSLLCLVKGFYPSDIAVEWESNGQPENRYMTWPPVLDSDGSFFLYSKLTVDKSRWQQGNVFSCSVMHEALHNHYTQKSLSLSPGK

How the values were obtained:
[1] = biological target: T1, human TIGIT on HEK-Blue reporter cells; assay: cell-based or functional assay
[2] = biological target: T2, IFN-γ receptor (IFNGR1 and IFNGR2); assay: cell-based or functional assay
[3] = biological target: human IL-12 receptor complex (IL-12Rβ1 and IL-12Rβ2) (human, UniProt P42701 24-662; Q99665 24-862); assay: cell-based or functional assay
mouse PD-1 = biological target: T3, mouse PD-1; assay: PD-L2-Fc format, calibrated on PD-L2(wt)-Fc, method not stated
human PD-1 = biological target: T4, human PD-1 (human, UniProt Q15116 25-167, limits assumed); assay: as above
T4 construct: also called hPD-1
T4 sequence (Q15116 25-167 limits assumed): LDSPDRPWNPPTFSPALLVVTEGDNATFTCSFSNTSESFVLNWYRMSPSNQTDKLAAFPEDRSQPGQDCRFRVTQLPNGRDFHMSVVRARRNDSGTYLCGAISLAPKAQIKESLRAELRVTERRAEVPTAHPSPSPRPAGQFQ

Sequence of human IL-12 receptor complex (IL-12Rβ1 and IL-12Rβ2) (Q99665 24-862, chain 2 of 2, other chains not shown): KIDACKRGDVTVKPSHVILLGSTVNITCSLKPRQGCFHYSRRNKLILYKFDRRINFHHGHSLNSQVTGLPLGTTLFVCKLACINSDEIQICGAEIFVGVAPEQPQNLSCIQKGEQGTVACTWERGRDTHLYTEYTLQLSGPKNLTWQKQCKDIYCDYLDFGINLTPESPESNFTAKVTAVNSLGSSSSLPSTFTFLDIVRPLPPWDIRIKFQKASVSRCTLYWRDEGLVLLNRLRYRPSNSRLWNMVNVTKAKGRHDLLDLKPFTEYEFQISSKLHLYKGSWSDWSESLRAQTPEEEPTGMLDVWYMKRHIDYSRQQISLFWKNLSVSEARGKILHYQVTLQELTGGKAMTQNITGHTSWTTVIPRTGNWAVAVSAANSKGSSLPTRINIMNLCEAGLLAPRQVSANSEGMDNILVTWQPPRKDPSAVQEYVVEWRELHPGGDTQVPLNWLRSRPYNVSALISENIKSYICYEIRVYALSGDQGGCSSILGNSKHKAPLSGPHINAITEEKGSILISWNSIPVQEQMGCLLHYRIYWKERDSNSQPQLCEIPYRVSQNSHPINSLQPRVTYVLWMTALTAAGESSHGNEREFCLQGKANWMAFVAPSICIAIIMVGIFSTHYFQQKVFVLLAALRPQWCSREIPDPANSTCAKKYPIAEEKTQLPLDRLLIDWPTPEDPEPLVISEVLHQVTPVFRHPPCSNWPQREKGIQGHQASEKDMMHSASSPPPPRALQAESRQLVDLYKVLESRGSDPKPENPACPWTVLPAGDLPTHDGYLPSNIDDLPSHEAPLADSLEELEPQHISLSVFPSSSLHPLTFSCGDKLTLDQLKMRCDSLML

Binder | IL-12 signal transduction, HEK-IL-12-TIGIT [1] [%] | IFN-γ signal transduction, HEK-IFN-γ [2] [%] | IL-12 signal transduction, HEK-IL-12 [3] [%] | Kd (mouse PD-1) [nM] | Kd (human PD-1) [nM]
B1 | 40 | < 0.2 | < 0.2 | – | –
B2 | – | < 0.2 | – | – | –
B3 | – | – | – | 230 | 350
B4 | – | – | – | 220 | 255
B5 | – | – | – | 430 | 520
B6 | – | – | – | 320 | 490
